Measured values: paper PMC2799296 (Biochemistry, 2009)

Target: the molecule itself
Assay: cryo-EM structure

B1: bacteriophage Qβ coat protein, wild-type (133 amino acids, lacking the A1 extension) (natural protein)
chain: MAKLETVTLGNIGKDGKQTLVLNPRGVNPTNGVASLSQAGAVPALEKRVTVSVSQPSRNRKNYKVQVKIQNPTACTANGSCDPSVTRQAYADVTFSFTQYSTDEERAFVRTELAALLASPLLIDAIDQLNPAY
  binding result: binds
